Measured values from patent US20250052768A1 (UNIVERSIT T HEIDELBERG, published 2025).

Tests used:
[1] = target: T1, DLL1 antigen (recombinant DLL1 protein) (human, UniProt O00548 18-540, limits assumed); test: sandwich ELISA, capture AbD33905, detection AbD33905-HRP, DLL1 2 ug/ml
T1 construct: also called Delta-like 1
T1 sequence (looked up): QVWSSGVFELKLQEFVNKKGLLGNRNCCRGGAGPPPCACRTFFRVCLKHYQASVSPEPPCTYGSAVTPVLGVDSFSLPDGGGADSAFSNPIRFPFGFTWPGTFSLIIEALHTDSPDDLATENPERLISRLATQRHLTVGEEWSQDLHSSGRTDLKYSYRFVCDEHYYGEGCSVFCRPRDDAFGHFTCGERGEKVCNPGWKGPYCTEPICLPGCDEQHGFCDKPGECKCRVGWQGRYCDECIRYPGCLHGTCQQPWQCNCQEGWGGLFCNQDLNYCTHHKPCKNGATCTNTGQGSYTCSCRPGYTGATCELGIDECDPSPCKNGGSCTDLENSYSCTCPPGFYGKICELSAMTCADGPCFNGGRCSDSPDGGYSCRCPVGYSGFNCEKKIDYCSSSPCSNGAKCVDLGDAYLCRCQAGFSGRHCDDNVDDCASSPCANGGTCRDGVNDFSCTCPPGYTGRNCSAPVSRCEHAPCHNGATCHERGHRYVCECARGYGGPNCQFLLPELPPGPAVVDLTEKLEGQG
Method: (§1) As control coating a-Fd (Bio-Rad antibodies, STAR126) at 5 μg/ml in PBS was used. Per well a volume of 20 μl coating solution was used. The Polystyrene ELISA plates were then incubated overnight at 4° C. with a closed lid. […] Subsequently, blocking of non-specific binding sites was performed with 100 μl per well of PBST containing 5% (w/v) BSA (Sigma-Aldrich, A7906-100). This blocking step was conducted at RT for 1-2 h. After removal of the blocking solution, five washes with PBST were performed. Thereafter, 2 μg/ml DLL1 antigen in PBST were added or PBST only (20 μl per well, triplicates were prepared). Incubation with the DLL1 antigen solution or PBST was performed at RT for 1 h. Next, the DLL1 antigen solution or PBST were removed and five washes with PBST were performed. […] After removal of this solution, ten washes with PBST were performed. […] For detection in the ELISA reader (Tecan Infinite M1000Pro Reader, Tecan Austria GmbH) excitation was performed at 320±25 nm and emission was detected at 430±35 nm.

[2] = target: T1, DLL1 antigen (recombinant DLL1 protein); test: sandwich ELISA, capture AbD33905, detection AbD33906-HRP, DLL1 2 ug/ml
Method: as §1

GST = test: ELISA on antigen coated at 5 ug/ml, anti-Strep-HRP secondary antibody
GST, sequence (P08515 2-218): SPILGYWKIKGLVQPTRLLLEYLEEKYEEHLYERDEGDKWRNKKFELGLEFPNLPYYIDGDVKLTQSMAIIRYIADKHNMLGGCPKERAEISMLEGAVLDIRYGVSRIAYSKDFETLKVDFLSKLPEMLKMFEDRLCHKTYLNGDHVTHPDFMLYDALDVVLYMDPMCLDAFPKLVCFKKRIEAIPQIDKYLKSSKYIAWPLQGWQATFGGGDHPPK
Method: (§2) The binding specificity of AbD33905 in form of a bivalent Fab fragment fused to alkaline phosphatase followed by a FLAG®-tag and Twin-Strep®-tag was tested in the following ELISA:
(§3) Per well a volume of 20 μl coating solution was used. The Polystyrene ELISA plates were then incubated overnight at 4° C. with a closed lid. […] Subsequently, blocking of non-specific binding sites was performed with 100 μl per well of PBST containing 5% (w/v) non-fat dry milk. This blocking step was conducted at RT for 1-2 h. After removal of the blocking solution, five washes with PBST were performed. Thereafter, AbD33905 in form of a bivalent Fab fragment fused to alkaline phosphatase followed by a FLAG®-tag and Twin-Strep®-tag in PBST was added (20 μl per well). Incubation with this AbD33905 Fab fragment was performed at RT for 1 h. Next, the AbD33905 Fab fragment containing solution was removed and five washes with PBST were performed. Thereafter 20 μl/well of 2 μg/ml anti-Strep-HRP secondary antibody (Bio-Rad antibodies, MCA2489P, 1:5000) in HISPEC assay diluent (Bio-Rad Antibodies, BUF049) were added and incubated at RT for 1 h. After removal of this solution, ten washes with PBST were performed. […] For detection in the ELISA reader (Tecan Infinite M1000Pro Reader, Tecan Austria GmbH) excitation was performed at 320±25 nm and emission was detected at 430±35 nm.

[3] = target: T1, DLL1 antigen (recombinant DLL1 protein); test: as above
Method: as §2, §3

[4] = target: bovine serum albumin (BSA) (bovine, UniProt P02769 25-607); test: as above
bovine serum albumin (BSA), sequence (P02769 25-607 limits assumed): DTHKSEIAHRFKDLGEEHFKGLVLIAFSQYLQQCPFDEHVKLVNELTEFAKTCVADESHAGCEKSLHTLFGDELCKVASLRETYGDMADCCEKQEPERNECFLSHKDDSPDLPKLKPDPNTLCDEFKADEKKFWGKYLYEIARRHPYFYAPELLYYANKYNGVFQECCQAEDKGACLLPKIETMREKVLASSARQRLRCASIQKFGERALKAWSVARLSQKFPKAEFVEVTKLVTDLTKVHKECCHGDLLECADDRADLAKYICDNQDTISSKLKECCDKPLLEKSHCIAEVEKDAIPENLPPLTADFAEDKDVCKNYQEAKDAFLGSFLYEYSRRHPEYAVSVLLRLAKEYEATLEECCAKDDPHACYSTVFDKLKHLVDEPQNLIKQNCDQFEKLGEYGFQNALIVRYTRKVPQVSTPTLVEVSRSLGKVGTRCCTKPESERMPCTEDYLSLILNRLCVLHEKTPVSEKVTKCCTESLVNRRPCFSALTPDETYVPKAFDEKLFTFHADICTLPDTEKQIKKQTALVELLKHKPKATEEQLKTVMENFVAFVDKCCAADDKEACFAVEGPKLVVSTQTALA
Method: as §2, §3

N1-CD33-His6 = test: as above
Method: as §2, §3

[5] = target: T1, DLL1 antigen (recombinant DLL1 protein); test: sandwich ELISA, capture AbD33906, detection AbD33905-HRP, DLL1 2 ug/ml
Method: as §1

[6] = target: T1, DLL1 antigen (recombinant DLL1 protein); test: sandwich ELISA, capture AbD33906, detection AbD33906-HRP, DLL1 2 ug/ml
Method: as §1

B1: AbD33905 (Fab fragment, monovalent) (Fab, V domains shown)
VH: EVQLLESGGGLVQPGGSLRLSCAASGFTFSSYAMHWVRQAPGKGLEWVSFISSGGSTTYYADSVKGRFTISRDNSKNTLYLQMNSLRAEDTAVYYCARFRSGYFDYWGQGTLVTVSS
VL: DIVMTQSPLSLPVTPGEPASISCRSSQSLVHSNGADYLNWYLQKPGQSPQLLIYKGSNRDSGVPDRFSGSGSGTDFTLKISRVEAEDVGVYYCQQGYDFPPFTFGQGTKVEIKR
notes: Monovalent Fab; also called Ab33905; monovalent AbD33905
[1]
  emission value DLL1 antigen/emission value PBST: 8 ratio
[2]
  emission value DLL1 antigen/emission value PBST: 66 ratio

B2: AbD33905 in form of a bivalent Fab fragment fused to alkaline phosphatase followed by a FLAG-tag and Twin-Strep-tag (Fab, V domains shown)
VH: B1 VH
VL: B1 VL
notes: it is put on the heavy chain here; also called AbD33905 bivalent Fab fragment; not shown: alkaline phosphatase, then FLAG-tag and Twin-Strep-tag
GST
  Emission data: 70 arbitrary units
[3]
  Emission data: 15500 arbitrary units
[4]
  Emission data: 71 arbitrary units
N1-CD33-His6
  Emission data: 46 arbitrary units

B3: AbD33906 (Fab fragment, monovalent) (Fab, V domains shown)
VH: QVQLVQSGAEVKKPGSSVKVSCKASGGTFSSYAISWVRQAPGQGLEWMGGIIPQFGIANYAQKFQGRVTITADESTSTAYMELSSLRSEDTAVYYCAREGYSDYSAFDYWGQGTLVTVSS
VL: DIALTQPASVSGSPGQSITISCTGTSSDVGTYNYVNWYQQHPGKAPKVMIYRVSNRPSGVSNRFSGSKSGNTASLTISGLQAEDEADYYCSSWDEHSYVFGGGTKLTVLG
notes: also called AbD33906 Fab fragments
[5]
  emission value DLL1 antigen/emission value PBST: 132 ratio
[6]
  emission value DLL1 antigen/emission value PBST: 7 ratio
